Biological target: NLRP3 protein, purchased recombinant (UniProt Q96P20 1-1036)
Experiment: SPR

NLRP3 protein, purchased recombinant, sequence (Q96P20 whole entry): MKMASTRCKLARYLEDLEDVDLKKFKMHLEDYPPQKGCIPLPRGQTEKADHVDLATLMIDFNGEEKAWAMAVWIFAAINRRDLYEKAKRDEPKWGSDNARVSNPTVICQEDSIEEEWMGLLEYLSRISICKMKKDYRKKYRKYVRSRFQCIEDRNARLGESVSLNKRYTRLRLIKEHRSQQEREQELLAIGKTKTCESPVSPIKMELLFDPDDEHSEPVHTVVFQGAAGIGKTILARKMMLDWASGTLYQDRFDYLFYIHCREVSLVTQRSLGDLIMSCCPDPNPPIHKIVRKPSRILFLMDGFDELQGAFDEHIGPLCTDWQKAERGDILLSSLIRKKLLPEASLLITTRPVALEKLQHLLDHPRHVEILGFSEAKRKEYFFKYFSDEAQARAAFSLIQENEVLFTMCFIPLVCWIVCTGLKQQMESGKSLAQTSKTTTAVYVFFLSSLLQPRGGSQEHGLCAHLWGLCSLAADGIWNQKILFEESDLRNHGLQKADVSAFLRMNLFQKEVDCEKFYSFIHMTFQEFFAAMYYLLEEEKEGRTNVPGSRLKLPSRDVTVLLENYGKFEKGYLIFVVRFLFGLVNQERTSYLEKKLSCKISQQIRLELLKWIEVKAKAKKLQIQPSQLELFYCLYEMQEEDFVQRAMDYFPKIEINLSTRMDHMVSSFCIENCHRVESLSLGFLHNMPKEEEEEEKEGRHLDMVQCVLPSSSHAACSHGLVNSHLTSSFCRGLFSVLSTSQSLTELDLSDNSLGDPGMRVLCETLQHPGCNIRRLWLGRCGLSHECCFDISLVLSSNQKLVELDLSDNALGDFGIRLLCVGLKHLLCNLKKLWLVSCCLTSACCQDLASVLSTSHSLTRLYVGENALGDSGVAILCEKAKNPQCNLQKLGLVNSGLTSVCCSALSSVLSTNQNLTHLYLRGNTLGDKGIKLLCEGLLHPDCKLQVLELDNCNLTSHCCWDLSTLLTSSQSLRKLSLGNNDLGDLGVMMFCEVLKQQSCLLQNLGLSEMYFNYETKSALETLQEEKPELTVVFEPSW

Kd: ~3.45 µM
B1: ASCT2 protein (alanine-serine-cysteine transporter 2), purchased recombinant (natural protein, UniProt Q15758 1-541, looked up)
chain: MVADPPRDSKGLAAAEPTANGGLALASIEDQGAAAGGYCGSRDQVRRCLRANLLVLLTVVAVVAGVALGLGVSGAGGALALGPERLSAFVFPGELLLRLLRMIILPLVVCSLIGGAASLDPGALGRLGAWALLFFLVTTLLASALGVGLALALQPGAASAAINASVGAAGSAENAPSKEVLDSFLDLARNIFPSNLVSAAFRSYSTTYEERNITGTRVKVPVGQEVEGMNILGLVVFAIVFGVALRKLGPEGELLIRFFNSFNEATMVLVSWIMWYAPVGIMFLVAGKIVEMEDVGLLFARLGKYILCCLLGHAIHGLLVLPLIYFLFTRKNPYRFLWGIVTPLATAFGTSSSSATLPLMMKCVEENNGVAKHISRFILPIGATVNMDGAALFQCVAAVFIAQLSQQSLDFVKIITILVTATASSVGAAGIPAGGVLTLAIILEAVNLPVDHISLILAVDWLVDRSCTVLNVEGDALGAGLLQNYVDRTESRSTEPELIQVKSELPLDPLPVPTEEGNPLLKHYRGPAGDATVASEKESVM

Reference: publication PMC9978855 (Acta Pharmaceutica Sinica. B, 2022)
